Where two headings read alike, the source gives them in different places.
Tests used:
[1] = molecular target: T1, Biotinylated Human EpCAM/TROP1 Protein, Avitag His tag, Cat. No. EPM-H82E8 (human, UniProt P16422 24-265, biotinylated); test: BLI, EpCAM on SAX tips
T1 construct: immobilized on SAX biosensor tips
T1 sequence (looked up): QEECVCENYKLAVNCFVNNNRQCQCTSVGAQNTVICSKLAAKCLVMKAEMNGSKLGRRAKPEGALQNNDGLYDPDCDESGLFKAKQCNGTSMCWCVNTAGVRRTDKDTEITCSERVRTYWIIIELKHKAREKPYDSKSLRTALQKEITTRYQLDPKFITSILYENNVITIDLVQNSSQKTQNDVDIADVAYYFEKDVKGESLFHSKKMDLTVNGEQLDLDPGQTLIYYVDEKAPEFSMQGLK
Source text: (§1) To correct for differences in concentration between the analyte stocks, Protein A binding was estimated for the same samples.
(§2) The 70s report point corresponds to 10s of association, since a baseline is created in the first 60 seconds.

[2] = molecular target: T1, Biotinylated Human EpCAM/TROP1 Protein, …; test: BLI, EpCAM signal over Protein A signal
Source text: as §1, §2

[3] = molecular target: T2, Protein A (Protein A sensor tips, Forte Bio, 18-5012) (UniProt P38507 37-327); test: BLI, Protein A tips
T2 construct: used to correct for the concentration of the antibody samples
Source text: as §1, §2

[4] = molecular target: T2, Protein A (Protein A sensor tips, Forte …); test: BLI, Protein A tips; remark: listed apart in the source
Source text: as §1, §2

[5] = molecular target: T1, Biotinylated Human EpCAM/TROP1 Protein, …; test: BLI, EpCAM on SAX tips; remark: listed apart in the source
Source text: as §1, §2

[6] = molecular target: T1, Biotinylated Human EpCAM/TROP1 Protein, …; test: BLI, EpCAM signal over Protein A signal; remark: listed apart in the source
Source text: as §1, §2

[7] = molecular target: T2, Protein A (Protein A sensor tips, Forte …); test: BLI, Protein A tips; remark: listed apart in the source
Source text: as §1, §2

[8] = molecular target: T3, Biotinylated Human TROP2/TACSTD2 Protein, His Avitag, Cat. No. TR2-H82E5 (human, UniProt P09758 27-274, biotinylated); test: BLI, TROP2 on SAX tips
T3 construct: immobilized on SAX biosensor tips
T3 sequence (looked up): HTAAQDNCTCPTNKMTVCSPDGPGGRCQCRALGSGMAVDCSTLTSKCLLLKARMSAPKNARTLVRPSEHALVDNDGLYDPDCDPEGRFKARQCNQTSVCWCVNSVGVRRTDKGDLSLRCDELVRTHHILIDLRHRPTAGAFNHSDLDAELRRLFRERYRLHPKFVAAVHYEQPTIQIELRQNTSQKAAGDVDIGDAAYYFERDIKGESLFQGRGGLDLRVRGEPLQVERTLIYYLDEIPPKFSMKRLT
Source text: as §1, §2

[9] = molecular target: T3, Biotinylated Human TROP2/TACSTD2 …; test: BLI, TROP2 signal over Protein A signal
Source text: as §1, §2

[10] = molecular target: T2, Protein A (Protein A sensor tips, Forte …); test: BLI, Protein A tips; remark: listed apart in the source
Source text: as §1

B1: S300 (antibody, human IgG1, kappa)
heavy: not shown
light: DIVMTQSALSNPVTLGESGSISCRSSKSLLHSNGITYLYWYLQKPGQSPQLLIYQMSNRASGVPDRFSSSGSGTDFTLKISRVEAEDVGVYYCAQNLELPRTFGQGTKLEMKRTVAAPSVFIFPPSDEQLKSGTASVVCLLNNFYPREAKVQWKVDNALQSGNSQESVTEQDSKDSTYSLSSTLTLSKADYEKHKVYACEVTHQGLSSPVTKSFNRGEC
notes: also called Anti-EpCAM ING-1 (naked)
[1]
  EpCAM binding after 10 s of association: 0.947 nm
[2]
  EpCAM/Protein A * 1000: 997
[3]
  Protein A binding after 10 s of association: 0.95 nm

B2: S301 (antibody, human IgG1, kappa)
heavy: not shown
light: QVQLVESGGGLVQPGGSLTLSCTASGFTLDHYDIGWFRQAPGKEREGVSCINNSDDDTYYADSVKGRFTIFMNNAKDTVYLQMNSLKPEDTAIYYCAEARGCKRGRYEYDFWGQGTQVTVSSGGGGSPLGLAGGGSDIVMTQSALSNPVTLGESGSISCRSSKSLLHSNGITYLYWYLQKPGQSPQLLIYQMSNRASGVPDRFSSSGSGTDFTLKISRVEAEDVGVYYCAQNLELPRTFGQGTKLEMKRTVAAPSVFIFPPSDEQLKSGTASVVCLLNNFYPREAKVQWKVDNALQSGNSQESVTEQDSKDSTYSLSSTLTLSKADYEKHKVYACEVTHQGLSSPVTKSFNRGEC
notes: also called masked ING-1 Qg-BC2T-L9-HC / BC2-Nb-L9-LC
[1]
  EpCAM binding after 10 s of association: 0.074 nm
[2]
  EpCAM/Protein A * 1000: 137
[3]
  Protein A binding after 10 s of association: 0.541 nm

B3: S302 (antibody, human IgG1, kappa)
heavy: not shown
light: QVQLVESGGGLVQPGGSLTLSCTASGFTLDHYDIGWFRQAPGKEREGVSCINNSDDDTYYADSVKGRFTIFMNNAKDTVYLQMNSLKPEDTAIYYCAEARGCKRGRYEYDFWGQGTQVTVSSGGGGSPLGLAGGGSDIVMTQSALSNPVTLGESGSISCRSSKSLLHSNGITYLYWYLQKPGQSPQLLIYQMSNRASGVPDRFSSSGSGTDFTLKISRVEAEDVGVYYCAQNLELPRTFGQGTKLEMKRTVAAPSVFIFPPSDEQLKSGTASVVCLLNNFYPREAKVQWKVDNALQSGNSQESVTEQDSKDSTYSLSSTLTLSKADYEKHKVYACEVTHQGLSSPVTKSFNRGEC
notes: also called masked P41C ING-1 Qg-BC2T-L9-HC (P41C) / BC2-Nb-L9-LC
[1]
  EpCAM binding after 10 s of association: 0.0354 nm
[2]
  EpCAM/Protein A * 1000: 129
[3]
  Protein A binding after 10 s of association: 0.275 nm

B4: S303 (antibody, human IgG1, kappa)
heavy: not shown
light: ELQMTQSPSSLSASVGDRVTITCRTSQSISSYLNWYQQKPGQPPKLLIYWASTRESGVPDRFSGSGSGTDFTLTISSLQPEDSATYYCQQSYDIPYTFGQGTKLEIKRTVAAPSVFIFPPSDEQLKSGTASVVCLLNNFYPREAKVQWKVDNALQSGNSQESVTEQDSKDSTYSLSSTLTLSKADYEKHKVYACEVTHQGLSSPVTKSFNRGEC
notes: also called Anti-EpCAM adecatumumab (MT-201) (naked)
[4]
  Protein A binding after 10 s of association: 3.09 nm
[5]
  EpCAM binding after 10 s of association: 1.85 nm
[6]
  EpCAM/Protein A * 1000: 599

B5: S304 (antibody, human IgG1, kappa)
heavy: not shown
light: QVQLVESGGGLVQPGGSLTLSCTASGFTLDHYDIGWFRQAPGKEREGVSCINNSDDDTYYADSVKGRFTIFMNNAKDTVYLQMNSLKPEDTAIYYCAEARGCKRGRYEYDFWGQGTQVTVSSGGGGSPLGLAGGGSELQMTQSPSSLSASVGDRVTITCRTSQSISSYLNWYQQKPGQPPKLLIYWASTRESGVPDRFSGSGSGTDFTLTISSLQPEDSATYYCQQSYDIPYTFGQGTKLEIKRTVAAPSVFIFPPSDEQLKSGTASVVCLLNNFYPREAKVQWKVDNALQSGNSQESVTEQDSKDSTYSLSSTLTLSKADYEKHKVYACEVTHQGLSSPVTKSFNRGEC
notes: also called masked adecatumumab Qg-BC2T-L9-HC / BC2-Nb-L9-LC
[4]
  Protein A binding after 10 s of association: 1.35 nm
[5]
  EpCAM binding after 10 s of association: 0.0247 nm
[6]
  EpCAM/Protein A * 1000: 18.3

B6: S305 (antibody, human IgG1, kappa)
heavy: not shown
light: QVQLVESGGGLVQPGGSLTLSCTASGFTLDHYDIGWFRQAPGKEREGVSCINNSDDDTYYADSVKGRFTIFMNNAKDTVYLQMNSLKPEDTAIYYCAEARGCKRGRYEYDFWGQGTQVTVSSGGGGSPLGLAGGGSELQMTQSPSSLSASVGDRVTITCRTSQSISSYLNWYQQKPGQPPKLLIYWASTRESGVPDRFSGSGSGTDFTLTISSLQPEDSATYYCQQSYDIPYTFGQGTKLEIKRTVAAPSVFIFPPSDEQLKSGTASVVCLLNNFYPREAKVQWKVDNALQSGNSQESVTEQDSKDSTYSLSSTLTLSKADYEKHKVYACEVTHQGLSSPVTKSFNRGEC
notes: also called masked P41C adecatumumab Qg-BC2T-L9-HC (P41C) / BC2-Nb-L9-LC
[4]
  Protein A binding after 10 s of association: 1.31 nm
[5]
  EpCAM binding after 10 s of association: 0.0189 nm
[6]
  EpCAM/Protein A * 1000: 14.5

B7: S306 (antibody, human IgG1, kappa)
heavy: not shown
light: DIQLTQSPSSLSASVGDRVSITCKASQDVSIAVAWYQQKPGKAPKLLIYSASYRYTGVPDRFSGSGSGTDFTLTISSLQPEDFAVYYCQQHYITPLTFGAGTKVEIKRTVAAPSVFIFPPSDEQLKSGTASVVCLLNNFYPREAKVQWKVDNALQSGNSQESVTEQDSKDSTYSLSSTLTLSKADYEKHKVYACEVTHQGLSSPVTKSFNRGEC
notes: also called Anti-TROP2 sacituzumab hRS7 (naked)
[7]
  Protein A binding after 10 s of association: 0.915 nm
[8]
  TROP2 binding after 10 s of association: 0.749 nm
[9]
  TROP2/Protein A * 1000: 818

B8: S307 (antibody, human IgG1, kappa)
heavy: not shown
light: QVQLVESGGGLVQPGGSLTLSCTASGFTLDHYDIGWFRQAPGKEREGVSCINNSDDDTYYADSVKGRFTIFMNNAKDTVYLQMNSLKPEDTAIYYCAEARGCKRGRYEYDFWGQGTQVTVSSGGGGSPLGLAGGGSDIQLTQSPSSLSASVGDRVSITCKASQDVSIAVAWYQQKPGKAPKLLIYSASYRYTGVPDRFSGSGSGTDFTLTISSLQPEDFAVYYCQQHYITPLTFGAGTKVEIKRTVAAPSVFIFPPSDEQLKSGTASVVCLLNNFYPREAKVQWKVDNALQSGNSQESVTEQDSKDSTYSLSSTLTLSKADYEKHKVYACEVTHQGLSSPVTKSFNRGEC
notes: also called masked sacituzumab Qg-BC2T-L9-HC / BC2-Nb-L9-LC
[7]
  Protein A binding after 10 s of association: 1.11 nm
[8]
  TROP2 binding after 10 s of association: 0.0345 nm
[9]
  TROP2/Protein A * 1000: 31.1

B9: S308 (antibody, human IgG1, kappa)
heavy: not shown
light: QVQLVESGGGLVQPGGSLTLSCTASGFTLDHYDIGWFRQAPGKEREGVSCINNSDDDTYYADSVKGRFTIFMNNAKDTVYLQMNSLKPEDTAIYYCAEARGCKRGRYEYDFWGQGTQVTVSSGGGGSPLGLAGGGSDIQLTQSPSSLSASVGDRVSITCKASQDVSIAVAWYQQKPGKAPKLLIYSASYRYTGVPDRFSGSGSGTDFTLTISSLQPEDFAVYYCQQHYITPLTFGAGTKVEIKRTVAAPSVFIFPPSDEQLKSGTASVVCLLNNFYPREAKVQWKVDNALQSGNSQESVTEQDSKDSTYSLSSTLTLSKADYEKHKVYACEVTHQGLSSPVTKSFNRGEC
notes: also called masked P41C sacituzumab Qg-BC2T-L9-HC (P41C) / BC2-Nb-L9-LC
[7]
  Protein A binding after 10 s of association: 0.646 nm
[8]
  TROP2 binding after 10 s of association: 0.0154 nm
[9]
  TROP2/Protein A * 1000: 23.8

B10: S309 (antibody, human IgG1, kappa)
heavy: not shown
light: DIQMTQSPSSLSASVGDRVTITCKASQDIRKYLNWYQQKPGKAPKLLIYYATSLADGVPSRFSGSGSGTDYTFTISSLQPEDIATYYCLQHGESPYTFGQGTKLEITRTVAAPSVFIFPPSDEQLKSGTASVVCLLNNFYPREAKVQWKVDNALQSGNSQESVTEQDSKDSTYSLSSTLTLSKADYEKHKVYACEVTHQGLSSPVTKSFNRGEC
notes: also called Anti-TF MORAb-066, CNT0860 (naked)
[10]
  Protein A binding after 10 s of association: 1.79 nm

B11: S310 (antibody, human IgG1, kappa)
heavy: not shown
light: QVQLVESGGGLVQPGGSLTLSCTASGFTLDHYDIGWFRQAPGKEREGVSCINNSDDDTYYADSVKGRFTIFMNNAKDTVYLQMNSLKPEDTAIYYCAEARGCKRGRYEYDFWGQGTQVTVSSGGGGSPLGLAGGGSDIQMTQSPSSLSASVGDRVTITCKASQDIRKYLNWYQQKPGKAPKLLIYYATSLADGVPSRFSGSGSGTDYTFTISSLQPEDIATYYCLQHGESPYTFGQGTKLEITRTVAAPSVFIFPPSDEQLKSGTASVVCLLNNFYPREAKVQWKVDNALQSGNSQESVTEQDSKDSTYSLSSTLTLSKADYEKHKVYACEVTHQGLSSPVTKSFNRGEC
notes: also called masked MORAb-066 Qg-BC2T-L9-HC / BC2-Nb-L9-LC
[10]
  Protein A binding after 10 s of association: 0.993 nm

B12: S311 (antibody, human IgG1, kappa)
heavy: not shown
light: QVQLVESGGGLVQPGGSLTLSCTASGFTLDHYDIGWFRQAPGKEREGVSCINNSDDDTYYADSVKGRFTIFMNNAKDTVYLQMNSLKPEDTAIYYCAEARGCKRGRYEYDFWGQGTQVTVSSGGGGSPLGLAGGGSDIQMTQSPSSLSASVGDRVTITCKASQDIRKYLNWYQQKPGKAPKLLIYYATSLADGVPSRFSGSGSGTDYTFTISSLQPEDIATYYCLQHGESPYTFGQGTKLEITRTVAAPSVFIFPPSDEQLKSGTASVVCLLNNFYPREAKVQWKVDNALQSGNSQESVTEQDSKDSTYSLSSTLTLSKADYEKHKVYACEVTHQGLSSPVTKSFNRGEC
notes: also called masked P41C MORAb-066 Qg-BC2T-L9-HC (P41C) / BC2-Nb-L9-LC
[10]
  Protein A binding after 10 s of association: 1.33 nm
